From publication PMC9680732 come the findings set out here.

pKd: −log10 of the molar value.

This test concerns the target singly biotinylated A20 zinc finger 4 (ZnF4: S592-K635) (human) (UniProt P21580). In words: BLI. (In general: In BLI a coated tip is dipped into the sample, and binding shifts an interference pattern.)

Sequence of singly biotinylated A20 zinc finger 4 (ZnF4: S592-K635) (human) (P21580 592-635): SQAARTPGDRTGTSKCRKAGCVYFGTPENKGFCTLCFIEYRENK

In the case of “K63-linked triubiquitin (from UniProt P0CG48 1-76)”, the pKd is 5.70.

In general, pKd refers to the negative decadic logarithm of the Kd, by convention in mol/L.
